# According to PMC11131964, “Enantioselective transformation of phytoplankton-derived dihydroxypropanesulfonate by marine bacteria” (The ISME Journal, 2024):
# T1: RpHpsO (R-DHPS dehydrogenase HpsO, SPO0595) (Ruegeria pomeroyi, UniProt Q5LVV0)
# T1 sequence (Q5LVV0 1-253): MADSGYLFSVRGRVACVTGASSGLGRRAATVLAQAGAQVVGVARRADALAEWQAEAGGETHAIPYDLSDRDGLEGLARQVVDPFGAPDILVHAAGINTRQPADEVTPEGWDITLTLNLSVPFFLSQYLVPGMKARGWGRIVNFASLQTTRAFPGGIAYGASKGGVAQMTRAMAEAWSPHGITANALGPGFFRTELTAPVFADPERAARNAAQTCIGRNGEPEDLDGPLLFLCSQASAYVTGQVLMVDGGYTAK
# T2: RpHpsN (R-DHPS dehydrogenase HpsN, SPO0594) (Ruegeria pomeroyi, UniProt Q5LVV1)
# T2 sequence (Q5LVV1 1-435): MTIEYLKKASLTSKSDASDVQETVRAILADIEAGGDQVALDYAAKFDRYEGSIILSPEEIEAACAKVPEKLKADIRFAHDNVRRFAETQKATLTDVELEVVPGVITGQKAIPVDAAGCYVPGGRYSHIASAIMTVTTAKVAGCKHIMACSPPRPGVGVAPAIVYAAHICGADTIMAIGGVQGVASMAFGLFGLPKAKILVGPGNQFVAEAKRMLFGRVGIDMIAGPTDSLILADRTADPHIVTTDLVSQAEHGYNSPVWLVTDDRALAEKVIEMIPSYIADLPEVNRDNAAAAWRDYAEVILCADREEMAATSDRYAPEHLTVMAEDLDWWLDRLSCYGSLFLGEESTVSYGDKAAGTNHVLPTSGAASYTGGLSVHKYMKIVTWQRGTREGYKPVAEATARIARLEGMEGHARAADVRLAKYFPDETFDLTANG
# T3: RpHpsP (S-DHPS dehydrogenase HpsP, SPO0596) (Ruegeria pomeroyi, UniProt Q5LVU9)
# T3 sequence (Q5LVU9 1-332): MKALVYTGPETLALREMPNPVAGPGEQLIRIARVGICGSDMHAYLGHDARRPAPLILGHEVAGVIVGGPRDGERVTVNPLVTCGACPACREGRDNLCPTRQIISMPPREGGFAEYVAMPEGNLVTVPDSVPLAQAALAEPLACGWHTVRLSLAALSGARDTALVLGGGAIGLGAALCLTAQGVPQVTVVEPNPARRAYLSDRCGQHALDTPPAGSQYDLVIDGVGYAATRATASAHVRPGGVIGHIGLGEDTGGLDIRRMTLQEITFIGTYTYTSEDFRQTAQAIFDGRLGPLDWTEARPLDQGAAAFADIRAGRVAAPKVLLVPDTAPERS
# Experiments:
# [1] = target: T1, RpHpsO (R-DHPS dehydrogenase HpsO, SPO0595); assay: SPR (Biacore T200, CM5 chip); also NADH formation assay, Km […]; assay type: binding
# [2] = target: T2, RpHpsN (R-DHPS dehydrogenase HpsN, SPO0594); assay: as above; assay type: binding
# [3] = target: T3, RpHpsP (S-DHPS dehydrogenase HpsP, SPO0596); assay: SPR (Biacore T200, CM5 chip); also NADH formation assay; assay type: binding
# [4] = target: HpsP from Dinoroseobacter shibae DFL 12 (S-DHPS dehydrogenase) (Dinoroseobacter shibae DFL 12) (UniProt A8LJR6); assay: crystal structure; DsHpsP alone, crystallised at 18°C in 0.2 M sodium formate, 18% PEG 3350; 2.3 Å; oligomer seen in the asymmetric unit
# [5] = substrate: OC[C@@H](O)[C@@H](O)[C@H](O)[C@@H](O)CO; assay: Michaelis-Menten kinetics of purified enzyme (Km); assay type: biochemical, Bacillus subtilis
# [6] = substrate: N[C@H](CO)Cc1c[nH]cn1; assay: Michaelis-Menten kinetics of purified enzyme (Km); assay type: biochemical, Escherichia coli
# [7] = target: the molecule itself; assay: crystal structure; RpHpsO alone, crystallised at 20°C in 0.1 M sodium citrate pH 5.4, 0.8 M sodium formate; 1.7 Å; oligomer seen in the asymmetric unit
# [8] = target: the molecule itself; assay: crystal structure; RpHpsN alone, crystallised at 18°C in 0.1 M Tris pH 7.5, 1.1 M ammonium sulfate; 2.9 Å; oligomer seen in the asymmetric unit
molecule,measurement,setting,value
O=S(=O)(O)C[C@H](O)CO [R-DHPS],Kd,[1],330 µM
same,Kd,[2],860 µM
O=S(=O)(O)C[C@@H](O)CO [S-DHPS],Kd,[3],740 µM
HpsP from Dinoroseobacter shibae DFL 12 (S-DHPS dehydrogenase) (from UniProt A8LJR6 1-512) (enzyme),stoichiometry N,[4],4
D-sorbitol dehydrogenase (Bsubs1_010100003458) (Bacillus subtilis subsp. subtilis str. 168) (protein) THTVPQNMKAAVMHNTREIKIETLPVPDINHDEVLIKVMAVGICGSDLHYYTNGRIGNYVVEKPFILGHECAGEIAAVGSSVDQFKVGDRVAVEPGVTCGRCEACKEGRYNLCPDVQFLATPPVDGAFVQYIKMRQDFVFLIPDSLSYEEAALIEPFSVGIHAAARTKLQPGSTIAIMGMGPVGLMAVAAAKAFGAGTIIVTDLEPLRLEAAKKMGATHIINIREQDALEEIKTITNDRGVDVAWETAGNPAALQSALASVRRGGKLAIVGLPSQNEIPLNVPFIADNEIDIYGIFRYANTYPKGIEFLASGIVDTKHLVTDQYSLEQTQDAMERALQFKNECLKVMVYPNR,Km,[5],32.35 ± 3.59 mM
same,kcat,[5],0.027 ± 0.001 s⁻¹
same,kcat/Km,[5],0.83 ± 0.045 M⁻¹ s⁻¹
L-histidinol dehydrogenase (Escherichia coli K-12) (protein) SFNTIIDWNSCTAEQQRQLLMRPAISASESITRTVNDILDNVKARGDEALREYSAKFDKTTVTALKVSAEEIAAASERLSDELKQAMAVAVKNIETFHTAQKLPPVDVETQPGVRCQQVTRPVASVGLYIPGGSAPLFSTVLMLATPASIAGCKKVVLCSPPPIADEILYAAQLCGVQDVFNVGGAQAIAALAFGTESVPKVDKIFGPGNAFVTEAKRQVSQRLDGAAIDMPAGPSEVLVIADSGATPDFVASDLLSQAEHGPDSQVILLTPAADMARRVAEAVERQLAELPRAETARQALNASRLIVTKDLAQCVEISNQYGPEHLIIQTRNARELVDSITSAGSVFLGDWSPESAGDYASGTNHVLPTYGYTATCSSLGLADFQKRMTVQELSKEGFSALASTIETLAAAERLTAHKNAVTLRVNALKEQA,Km,[6],9.37 ± 3.63 mM
same,kcat,[6],0.042 ± 0.022 s⁻¹
same,kcat/Km,[6],4 ± 2 M⁻¹ s⁻¹
"HpsO from Ruegeria pomeroyi DSS-3 (R-DHPS dehydrogenase) (enzyme, HpsO, R-DHPS dehydrogenase of the short chain dehydrogenase/reductase family, Ruegeria pomeroyi DSS-3, locus tag SPO0595; Wild type; also called RpHpsO; SPO0595; source: E. coli BL21(DE3), pET28a, purified (HisTrap HP, Superdex 200 gel filtration)) MADSGYLFSVRGRVACVTGASSGLGRRAATVLAQAGAQVVGVARRADALAEWQAEAGGETHAIPYDLSDRDGLEGLARQVVDPFGAPDILVHAAGINTRQPADEVTPEGWDITLTLNLSVPFFLSQYLVPGMKARGWGRIVNFASLQTTRAFPGGIAYGASKGGVAQMTRAMAEAWSPHGITANALGPGFFRTELTAPVFADPERAARNAAQTCIGRNGEPEDLDGPLLFLCSQASAYVTGQVLMVDGGYTAK",stoichiometry N,[7],4
"HpsN from Ruegeria pomeroyi DSS-3 (R-DHPS dehydrogenase) (enzyme, HpsN, R-DHPS dehydrogenase (sulfopropanediol 3-dehydrogenase) of the aldehyde dehydrogenase superfamily, Ruegeria pomeroyi DSS-3, locus tag SPO0594; Wild type; Val218-Gly225 and Thr348-Leu374 lack electron density in the crystal structure; also called RpHpsN; SPO0594; source: E. coli BL21(DE3), pET28a, purified (HisTrap HP, Superdex 200 gel filtration)) MTIEYLKKASLTSKSDASDVQETVRAILADIEAGGDQVALDYAAKFDRYEGSIILSPEEIEAACAKVPEKLKADIRFAHDNVRRFAETQKATLTDVELEVVPGVITGQKAIPVDAAGCYVPGGRYSHIASAIMTVTTAKVAGCKHIMACSPPRPGVGVAPAIVYAAHICGADTIMAIGGVQGVASMAFGLFGLPKAKILVGPGNQFVAEAKRMLFGRVGIDMIAGPTDSLILADRTADPHIVTTDLVSQAEHGYNSPVWLVTDDRALAEKVIEMIPSYIADLPEVNRDNAAAAWRDYAEVILCADREEMAATSDRYAPEHLTVMAEDLDWWLDRLSCYGSLFLGEESTVSYGDKAAGTNHVLPTSGAASYTGGLSVHKYMKIVTWQRGTREGYKPVAEATARIARLE",stoichiometry N,[8],4
